Laboratory results taken from article PMC3457981, “The Role, Interaction and Regulation of the Velvet Regulator VelB in Aspergillus nidulans”.

T1: GST-AbaA (Aspergillus nidulans, UniProt P20945 1-588)
T1 sequence: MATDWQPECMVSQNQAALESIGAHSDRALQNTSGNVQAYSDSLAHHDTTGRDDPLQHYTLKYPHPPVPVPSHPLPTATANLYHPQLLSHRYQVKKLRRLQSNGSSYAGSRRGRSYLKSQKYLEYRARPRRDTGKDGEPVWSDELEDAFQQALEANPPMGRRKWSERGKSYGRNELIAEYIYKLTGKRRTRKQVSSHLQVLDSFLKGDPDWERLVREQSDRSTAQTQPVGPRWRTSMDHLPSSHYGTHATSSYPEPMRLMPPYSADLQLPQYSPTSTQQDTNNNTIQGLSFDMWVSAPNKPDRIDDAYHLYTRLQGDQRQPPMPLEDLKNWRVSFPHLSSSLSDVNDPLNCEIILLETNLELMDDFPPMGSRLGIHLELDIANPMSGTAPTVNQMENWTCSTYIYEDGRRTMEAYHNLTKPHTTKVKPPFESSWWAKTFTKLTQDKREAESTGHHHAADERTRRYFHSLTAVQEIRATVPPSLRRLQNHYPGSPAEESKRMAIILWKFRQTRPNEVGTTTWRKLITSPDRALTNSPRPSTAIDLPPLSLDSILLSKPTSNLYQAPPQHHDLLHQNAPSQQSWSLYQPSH

B1: velB EMSA probe 1 (dsDNA)
DNA 1: CAGCTCCATTCCGCACGGTCATTCC
DNA 2: GGAATGACCGTGCGGAATGGAGCTG
B2: velB EMSA probe 2 (dsDNA)
DNA 1: AGCTCCAGCTCCATTCCGCACGGTCATTCCGTTCTCGGCG
DNA 2: CGCCGAGAACGGAATGACCGTGCGGAATGGAGCTGGAGCT
B3: vosA EMSA probe 3 (dsDNA)
DNA 1: GTGGTTCCTTACCTCATTCCCGACCTTTTTTGCC
DNA 2: GGCAAAAAAGGTCGGGAATGAGGTAAGGAACCAC

Molecular target: T1, GST-AbaA
Assay: EMSA; 6% glycerol, 12 mM HEPES-KOH pH 7.6, 4 mM Tris-HCl pH 8.0, 1 mM EDTA, 0.5 mM DTT, 0-12 ug poly(dI-dC), ~10 ng probe in 24 ul; RT, 20 min; 6% PAGE, TBE
Details: protein: recombinant; tags: N-terminal GST (pGEX-5X-1); label: 32P (5' end, T4 PNK); blunt

Binder | binding result
B1 | binds
B2 | binds
B3 | binds
